From patent EP3964526A1 (Novartis AG, dated 2022) come the findings set out here.

Substitutions are numbered along the chain they refer to.

For assay [1], the target named is T1, recombinant human VEGF165 (PeproTech EC Ltd.) (human, UniProt P15692-4 27-191).
T1 construct: Amine-coupled to a CM4 sensor chip; also called hVEGF165
The assay is described as follows: SPR BIAcore T100, hVEGF165 amine-coupled on CM4 chip, scFv as analyte.

In another assay the target is T2, Human TNFa N-his trimers (human, UniProt P01375 77-233).
T2 construct: Captured at 5 nM on an NTA sensor chip by the N-terminal his-tags; also called His-tagged TNF (produced at ESBATech); not shown: N-terminal his-tag
Briefly: SPR BIAcore T100, His-tagged human TNF trimers captured on NTA chip, scFv as analyte.

Assay [2] concerns the target VEGF (as used in the VEGFR competition ELISA). The assay is described as follows: competition ELISA against hVEGR1, EC50 ratio to reference Luc.

T2 sequence (P01375 77-233 limits assumed): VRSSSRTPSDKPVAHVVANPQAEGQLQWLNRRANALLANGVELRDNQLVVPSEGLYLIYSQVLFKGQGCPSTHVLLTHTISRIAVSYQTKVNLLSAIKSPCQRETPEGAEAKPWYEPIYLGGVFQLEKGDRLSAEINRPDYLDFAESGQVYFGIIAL
T1 sequence (P15692 other isoform, or with tags, fused parts or gaps limits assumed): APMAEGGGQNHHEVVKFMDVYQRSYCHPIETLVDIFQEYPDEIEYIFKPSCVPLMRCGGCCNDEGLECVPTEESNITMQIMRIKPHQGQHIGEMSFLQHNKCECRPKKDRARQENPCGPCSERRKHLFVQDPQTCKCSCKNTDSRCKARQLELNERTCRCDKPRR
VEGF (as used in the VEGFR competition ELISA), sequence (P15692 whole entry): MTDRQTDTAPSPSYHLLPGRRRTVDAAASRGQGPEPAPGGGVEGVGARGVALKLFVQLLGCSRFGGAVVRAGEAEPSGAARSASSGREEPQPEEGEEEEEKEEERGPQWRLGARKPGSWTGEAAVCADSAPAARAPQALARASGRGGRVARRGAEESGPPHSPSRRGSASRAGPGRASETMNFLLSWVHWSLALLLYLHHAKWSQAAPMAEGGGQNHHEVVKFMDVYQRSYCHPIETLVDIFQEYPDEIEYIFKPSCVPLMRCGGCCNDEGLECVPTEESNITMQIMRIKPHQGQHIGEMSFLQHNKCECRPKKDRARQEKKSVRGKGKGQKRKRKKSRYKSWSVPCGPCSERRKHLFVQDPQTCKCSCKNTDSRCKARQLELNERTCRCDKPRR

B1: 610-min (scFv)
chain: EIVMTQSPSTLSASVGDRVIITCQASQSISSWLSWYQQKPGKAPKLLIYQASTLASGVPSRFSGSGSGAEFTLTISSLQPDDFATYYCQNNYGFRSYGGAFGQGTKLTVLGGGGGSGGGGSGGGGSGGGGSEVQLVESGGGLVQPGGSLRLSCAASGIDFSGAYYMGWVRQAPGKGLEWVSYIDYDGDRYYASWAKGRFTISRDNSKNTLYLQMNSLRAEDTAVYYCAKSDYSSGWGTDIWGQGTLVTVSS
Take B1: in assay [1], the Kd was determined as 10.6 nM, the off-rate constant (koff) turned out to be 0.00265 s⁻¹ and the kon came to 251000 M⁻¹ s⁻¹.

B2: 610-max (scFv)
chain: B1 chain with A69T, A154T, S181G, R203K, N205T, L210V, K229R
Take B2: in assay [1], the Kd is 1.18 nM, the dissociation rate constant (koff) was 0.000601 s⁻¹ and the on-rate constant (kon) is 509000 M⁻¹ s⁻¹.

B3: 435-max (scFv)
chain: EIVMTQSPSTLSASVGDRVIITCQASQSIGSSLAWYQQKPGKAPKLLIYTAANLASGVPSRFSGSRSGAEFTLTISSLQPDDFATYYCQNFATSDTVTFGQGTKLTVLGGGGGSGGGGSGGGGSGGGGSEVQLVESGGGLVQPGGSLRLSCKASGFSLNTNYWMCWVRQAPGKGLEWVGCMYTGSYNRAYYASWAKGRFTSSKDTSKNTVYLQMNSLRAEDTAVYYCAKGSNWYSDLWGQGTLVTVSS
Regarding B3, in assay [1], the Kd turned out to be 4.53 nM, the off-rate (koff) worked out at 0.000755 s⁻¹ and the kon came to 167000 M⁻¹ s⁻¹.

B4: EP1_max (scFv)
chain: EIVMTQSPSTLSASVGDRVIITCQSTESVYKNNYLAWYQQKPGKAPKLLIYDASTLASGVPSRFSGSGSGTEFTLTISSLQPDDFATYYCAGYYRSGSGTANGSFGQGTKLTVLGGGGGSGGGGSGGGGSGGGGSEVQLVESGGGSVQPGGSLRLSCTVSGIDLSNDAISWVRQAPGKGLEWVAYISDWSIRYYANWAQGRFTISKDTSKNTVYLQMNSLRAEDTATYYCARGAPGAGDNGIWGQGTTVTVSS
Regarding B4, the affinity in the assay with Human TNFa N-his trimers, expressed as Kd, was 56.9 nM.

B5: EP42_max (scFv)
chain: B4 chain with S98F, S165R, A184S, S190G, R192K, N196S, A198V, Q199K
Molecule B5 gave a dissociation constant Kd with Human TNFa N-his trimers of 3.46 nM.

B6: EP35_max (scFv)
chain: EIVMTQSPSTLSASVGDRVIITCQASQSISNLLAWYQQKPGKAPKLLIVAASKLASGVPSRFSGSGSGTEFTLTISSLQPDDFATYYCQQGWSHTNVDNTFGQGTKLTVLGGGGGSGGGGSGGGGSGGGGSEVQLVESGGGSVQPGGSLRLSCTASGFSFSVGYWICWVRQAPGKGLEWVACIDAGTSGGTYYATWAKGRFTISKDTSKNTVYLQMNSLRAEDTATYYCARGVSSNGYYFKLWGQGTTVTVSS
The molecule B6 yielded a dissociation constant (Kd) with Human TNFa N-his trimers of 0.194 nM.

B7: EP34_max (scFv)
chain: EIVMTQSPSTLSASLGDRVIITCQSSQSVYGNIWMAWYQQKSGKAPKLLIYQASKLASGVPSRFSGSGSGAEFSLTISSLQPDDFATYYCQGNFNTGDRYAFGQGTKLTVLGGGGGSGGGGSGGGGSGGGGSEVQLVESGGGLVQPGGSLRLSCTASGFTISRSYWICWVRQAPGKGLEWVACIYGDNDITPLYANWAKGRFPVSTDTSKNTVYLQMNSLRAEDTAVYYCARLGYADYAYDLWGQGTLVTVSS
Consider B7, for which the Kd in the assay with Human TNFa N-his trimers was 0.0286 nM.

B8: EP6_min (scFv)
chain: EIVMTQSPSTLSASVGDRVIITCQASESIYSGLAWYQQKPGKAPKLLIYQASTLASGVPSRFSGSGSGAEFTLTISSLQPDDFATYYCQQGFGTSNVENPFGQGTKLTVLGGGGGSGGGGSGGGGSGGGGSEVQLVESGGGLVQPGGSLRLSCAASGFSLSRYGVSWVRQAPGKGLEWVSTIGEAGRAYYANWARSRFTISRDNSKNTLYLQMNSLRAEDTAVYYCAKGEVFNNGWGAFNIWGQGTLVTVSS
B8 yielded a dissociation constant (Kd) with Human TNFa N-his trimers of 106 nM.

B9: EP6_max (scFv)
chain: B8 chain with A69T, E70D, T74A, A154T, A155V, S180G, F198S, N204T, L209V, K228R
For B9, in the assay with Human TNFa N-his trimers, the dissociation constant (Kd) worked out at 0.512 nM.

B10: EP15_max (scFv)
chain: EIVMTQSPSTLSASVGDRVIITCQASENIYTSLAWYQQKPGKAPKLLIYSASTLASGVPSRFSGSGSGTEFTLTISSLQPDDFATYYCQQGFATSNVENPFGQGTKLTVLGGGGGSGGGGSGGGGSGGGGSEVQLVESGGGSVQPGGSLRLSCTVSGFSLSRYGVSWVRQAPGKGLEWVGAIGETGRAYYANWAKSRSTISRDTSKNTVYLQMNSLRAEDTATYYCARGEEFNNGWGAFNIWGQGTTVTVSS
B10 returned an equilibrium dissociation constant (Kd) in the assay with Human TNFa N-his trimers of 1.48 nM.

B11: EP43_max (scFv)
chain: EIVMTQSPSTLSASVGDRVIIKCQASQSISDWLAWYQQKPGKAPKLLIYGASRLASGFPSRFSGSGSGAEFTLTISGLEPADFATYYCQQGWSDSYVDNLFGQGTKLTVLGGGGGSGGGGSGGGGSGGGGSEVQLVESGGGLVQPGGSLRLSCTVSGFSLSSGAMSWVRQAPGKGLEWVGVIISSGATYYASWAKGRFTISKDTSKNTVYLQMNSLRAEDTAVYYCARGGPDDSNSMGTFDPWGQGTLVTVSS
Regarding B11, the Kd with Human TNFa N-his trimers stood at 0.251 nM.

B12: 375-min (scFv)
chain: EIVMTQSPSTLSASVGDRVIITCQASENINIWLSWYQQKPGKAPKLLIYQASKLASGVPSRFSGSGSGAEFTLTISSLQPDDFATYYCQNNYSYNRYGAPFGQGTKLTVLGGGGGSGGGGSGGGGSGGGGSEVQLVESGGGLVQPGGSLRLSCAASGFSFTTTDYMCWVRQAPGKGLEWVSCILAGDGSTYYANWAKGRFTISRDNSKNTLYLQMNSLRAEDTAVYYCAKSDPASSWSFALWGQGTLVTVSS
As to B12, in assay [1], the Kd was 5.41 nM, the koff came to 0.00501 s⁻¹ and the on-rate constant (kon) is 927000 M⁻¹ s⁻¹.

B13: 375-max (scFv)
chain: B12 chain with A69T, E70Q, A154K, S181G, I202G, R204K, N206T, L211V, K230R
Turning to B13, in assay [1], the Kd was found to be 2.68 nM, the koff was 0.00655 s⁻¹ and the on-rate (kon) worked out at 2.44e+06 M⁻¹ s⁻¹.

B14: EP43_min (scFv)
chain: EIVMTQSPSTLSASVGDRVIITCQASQSISDWLAWYQQKPGKAPKLLIYGASRLASGVPSRFSGSGSGAEFTLTISSLQPDDFATYYCQQGWSDSYVDNLFGQGTKLTVLGGGGGSGGGGSGGGGSGGGGSEVQLVESGGGLVQPGGSLRLSCAASGFSLSSGAMSWVRQAPGKGLEWVSVIISSGATYYASWAKGRFTISRDNSKNTLYLQMNSLRAEDTAVYYCAKGGPDDSNSMGTFDPWGQGTLVTVSS
In the assay with Human TNFa N-his trimers, B14 had a dissociation constant Kd of 5540 nM.

B15: EP19_max (scFv)
chain: EIVMTQSPSTLSASVGDRVIITCQASDNIYRGLAWYQQKPGKAPKLLIYDASTLQSGVPSRFSGSGSGTQFTLTISSLQPDDFATYYCLGVYGYSSDDGAAFGQGTKLTVLGGGGGSGGGGSGGGGSGGGGSEVQLVESGGGLVQPGGSLRLSCTVSGFSLNSNEISWVRQAPGKGLEWVGYIGNGGMTHYASWAKGRFTISRDTSKNTVYLQMNSLRAEDTAVYYCASSVEYTDLYYLNIWGQGTLVTVSS
For B15, binding in the assay with Human TNFa N-his trimers was put at a Kd of 2.91 nM.

B16: EP42_min (scFv)
chain: EIVMTQSPSTLSASVGDRVIITCQSTESVYKNNYLAWYQQKPGKAPKLLIYDASTLASGVPSRFSGSGSGAEFTLTISSLQPDDFATYYCAGYYRSGFGTANGSFGQGTKLTVLGGGGGSGGGGSGGGGSGGGGSEVQLVESGGGLVQPGGSLRLSCAASGFTFRNDAISWVRQAPGKGLEWVSYISDWGIKYYASWVKGRFTISRDNSKNTLYLQMNSLRAEDTAVYYCAKGAPGAGDNGIWGQGTLVTVSS
Regarding B16, the dissociation constant (Kd) in the assay with Human TNFa N-his trimers came out at 58.7 nM.

B17: EP15_min (scFv)
chain: EIVMTQSPSTLSASVGDRVIITCQASENIYTSLAWYQQKPGKAPKLLIYSASTLASGVPSRFSGSGSGAEFTLTISSLQPDDFATYYCQQGFATSNVENPFGQGTKLTVLGGGGGSGGGGSGGGGSGGGGSEVQLVESGGGLVQPGGSLRLSCAASGFTFSRYGVSWVRQAPGKGLEWVSAIGETGRAYYANWAKSRFTISRDNSKNTLYLQMNSLRAEDTAVYYCAKGEEFNNGWGAFNIWGQGTLVTVSS
For B17, in the assay with Human TNFa N-his trimers, binding was put at a Kd of 262 nM.

B18: 534-max (scFv)
chain: EIVMTQSPSTLSASVGDRVIITCQASQSINIWLSWYQQKPGKAPKLLIYKESTLASGVPSRFSGSGSGTEFTLTISSLQPDDFATYYCQNNYDSGNNGFPFGQGTKLTVLGGGGGSGGGGSGGGGSGGGGSEVQLVESGGGLVQPGGSLRLSCTASGFSLSYYYMSWVRQAPGKGLEWVGIIGPGDYTDYASWAKGRFTISKDTSKNTVYLQMNSLRAEDTAVYYCARGDDNSGWGEDIWGQGTLVTVSS
Take B18: in assay [1], the Kd amounted to 9.21 nM, the koff turned out to be 0.0173 s⁻¹ and the association rate constant (kon) came to 1.88e+06 M⁻¹ s⁻¹.

B19: 509-max (scFv)
chain: EIVMTQSPSTLSASVGDRVIITCQASQNIRIWLSWYQQKPGKAPKLLIYKASTLESGVPSRFSGSGSGTEFTLTISSLQPDDFATYYCQNNAHYSTNGGTFGQGTKLTVLGGGGGSGGGGSGGGGSGGGGSEVQLVESGGGLVQPGGSLRLSCTASGFSLSSYYMCWVRQAPGKGLEWVGCLDYVGDTDYASWAKGRFTISKDASKNTVYLQMNSLRAEDTAVYYCARTDDSRGWGLNIWGQGTLVTVSS
As to B19, the “Rel. activity hVEGR1 comp. ELISA (EC50Luc[nM]/EC50test[nM])” value in assay [2] was 13 ratio. In assay [1], the Kd stood at 1.21 nM, the koff was 0.00272 s⁻¹ and the kon was found to be 2.26e+06 M⁻¹ s⁻¹.

For orientation: Kd means the free concentration of one partner at which half of the binding sites on the other are occupied at equilibrium, for simple one-to-one binding. In general, koff refers to the rate constant with which the complex falls apart. For orientation: kon means the rate constant with which the complex forms.
